B1: CCDC89 (parent)
chain: LNAELEEKMMQEAEKLKAQGEYSR
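Also: lentivirally expressed fusions sorted by FACS into six bins by GFP to DsRed ratio, PSI derived from sequencing read proportions per bin multiplied by bin number.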

The data set covers variants of B1. Kind of data set: protein stability index of a GFP-peptide fusion (GPS, HEK-293T) (PSI 1-6); higher = more stable. The conditions noted are these: c terminus: a fixed tail appended.
With LNAELEEKMMQEAEKQKAQGEYSR [L16Q], the protein stability index is 4.65. For LNAELEEKMMQEAEKNKAQGEYSR [L16N] the value was 5.17. For LNAELEEKMMQEAEKAKAQGEYSR [L16A] the value was 5.1.

LNAELEEKMMQEAEKPKAQGEYSR [L16P]: the protein stability index amounted to 5.68. For LNAELEEKMMQEAEKCKAQGEYSR [L16C] the value was 5.36; for LNAELEEKMMQEAEKIKAQGEYSR [L16I], 5.82; for LNAELEEKMMQEAEKYKAQGEYSR [L16Y], 4.37. For LNAELEEKMMQEAEKVKAQGEYSR [L16V] the value was 4.97; for LNAELEEKMMQEAEKSKAQGEYSR [L16S], 5.76. As for LNAELEEKMMQEAEKEKAQGEYSR [L16E], the figure is 5.79. Turning to LNAELEEKMMQEAEKGKAQGEYSR [L16G], the protein stability index is 5.09.

Turning to LNAELEEKMMQEAEKWKAQGEYSR [L16W], the protein stability index stood at 4.6. As for LNAELEEKMMQEAEKTKAQGEYSR [L16T], the figure is 5.14; as for LNAELEEKMMQEAEKDKAQGEYSR [L16D], 5.77. Take LNAELEEKMMQEAEKKKAQGEYSR [L16K]: the protein stability index came to 4.85. For LNAELEEKQMQEAEKLKAQGEYSR [M9Q], the protein stability index came out at 4.79. For LNAELEEKTMQEAEKLKAQGEYSR [M9T] the value was 5.23; for LNAELEEKPMQEAEKLKAQGEYSR [M9P], 5.53. For LNAELEEKNMQEAEKLKAQGEYSR [M9N] the value was 5.1. Turning to LNAELEEKRMQEAEKLKAQGEYSR [M9R], the protein stability index came out at 5.12. As for LNAELEEKWMQEAEKLKAQGEYSR [M9W], the protein stability index was found to be 5.04. As for LNAELEEKMKQEAEKLKAQGEYSR [M10K], the figure is 5.08. LNAELEEKMTQEAEKLKAQGEYSR [M10T]: the protein stability index was 5.42. As for LNAELEEKMYQEAEKLKAQGEYSR [M10Y], the figure is 5.15; as for LNAELEEKMHQEAEKLKAQGEYSR [M10H], 5.11. As for LNAELEEKMRQEAEKLKAQGEYSR [M10R], the figure is 5.25; as for LNAELEEKMLQEAEKLKAQGEYSR [M10L], 5.46; as for LNAELEEKMVQEAEKLKAQGEYSR [M10V], 5.13.

Take LNAELEEKMWQEAEKLKAQGEYSR [M10W]: the protein stability index came to 4.7. For LNAELEEKMDQEAEKLKAQGEYSR [M10D] the value was 5.08; for LNAELEEKMEQEAEKLKAQGEYSR [M10E], 5.39. As for LNAELEEKMSQEAEKLKAQGEYSR [M10S], the figure is 5.65. For LNAELEEKMAQEAEKLKAQGEYSR [M10A] the value was 5.55. Regarding LNAELEEKMNQEAEKLKAQGEYSR [M10N], the protein stability index came out at 5.34.

In the case of LNAELEEKMMQEAEKLKAQGSYSR [E21S], the protein stability index is 4.39. LNAELEEKMMQEAEKLKAQGRYSR [E21R]: the protein stability index amounted to 4.98. For LNAELEEKMMQEAEKLKAQGLYSR [E21L] the value was 4.16; for LNAELEEKMMQEAEKLKAQGCYSR [E21C], 4.29. As for LNAELEEKMMQEAEKLKAQGVYSR [E21V], the protein stability index stood at 4.58.

Turning to LNAELEEKMMQEAEKLKAQGWYSR [E21W], the protein stability index is 3.76. As for LNAELEEKMMQEAEKLKAQGTYSR [E21T], the figure is 4.19; as for LNAELEEKMMQEAEKLKAQGAYSR [E21A], 4.77; as for LNAELEEKMMQEAEKLKAQGNYSR [E21N], 4.79. As for LNAELEEKMMQEAEKLKAQGDYSR [E21D], the figure is 4.92. As for LNAELEEKMMQEAEKLKAQGHYSR [E21H], the figure is 4.47; as for LNAELEEKMMQEAEKLKAQGYYSR [E21Y], 5.03; as for LNAELEEKMMQEAEKLKAQGKYSR [E21K], 5.46.

LNAELEEKMMQEAEKLKAQGMYSR [E21M]: the protein stability index was 4.76. For LNAELEEKMMQEAEKLKAQGGYSR [E21G] the value was 4.17. As for LNAELEEKMMQEAEKLKAQGIYSR [E21I], the figure is 4.62; as for LNAELEEKMMQEHEKLKAQGEYSR [A13H], 4.85; as for LNAELEEKMMQEQEKLKAQGEYSR [A13Q], 4.5. In the case of LNAELEEKMMQEFEKLKAQGEYSR [A13F], the protein stability index was found to be 4.49. As to LNAELEEKMMQEEEKLKAQGEYSR [A13E], the protein stability index amounted to 5.71. On to LNAELEEKMMQEVEKLKAQGEYSR [A13V], for which the protein stability index was determined as 4.64.

Regarding LNAELEEKMMQESEKLKAQGEYSR [A13S], the protein stability index was found to be 4.68. In the case of LNAELEEKMMQECEKLKAQGEYSR [A13C], the protein stability index came to 4.94. On to LNAELEEKMMQEIEKLKAQGEYSR [A13I], for which the protein stability index stood at 4.38.

In the case of LNAELEEKMMQEWEKLKAQGEYSR [A13W], the protein stability index came to 4.13.

Regarding LNAELEEKMMQEMEKLKAQGEYSR [A13M], the protein stability index was determined as 5. Take LNAELEEKMMQETEKLKAQGEYSR [A13T]: the protein stability index came out at 5.26. As for LNAELEEKMMQEGEKLKAQGEYSR [A13G], the figure is 4.84; as for LNAELEEKMMQEDEKLKAQGEYSR [A13D], 5.8. For LNAELEEKMMQEREKLKAQGEYSR [A13R] the value was 4.99; for LNAELEEKMMQEKEKLKAQGEYSR [A13K], 5.08. Regarding LNAELEEKMMQEYEKLKAQGEYSR [A13Y], the protein stability index is 5.28. For the variant LNAELEEKMMQEADKLKAQGEYSR [E14D], the protein stability index is 5.19.

With LNAELEEKMMQEACKLKAQGEYSR [E14C], the protein stability index turned out to be 4.33. For LNAELEEKMMQEAQKLKAQGEYSR [E14Q] the value was 5.15; for LNAELEEKMMQEALKLKAQGEYSR [E14L], 4.5; for LNAELEEKMMQEAHKLKAQGEYSR [E14H], 5.41.

LNAELEEKMMQEAAKLKAQGEYSR [E14A]: the protein stability index was determined as 4.

Turning to LNAELEEKMMQEAGKLKAQGEYSR [E14G], the protein stability index was 3.59. As to LNAELEEKMMQEAIKLKAQGEYSR [E14I], the protein stability index was 4.27. For LNAELEEKMMQEAFKLKAQGEYSR [E14F] the value was 4.05; for LNAELEEKMMQEANKLKAQGEYSR [E14N], 4.66; for LNAELEEKMMFEAEKLKAQGEYSR [Q11F], 4.14.

As to LNAELEEKMMYEAEKLKAQGEYSR [Q11Y], the protein stability index was found to be 4.86. For LNAELEEKMMSEAEKLKAQGEYSR [Q11S] the value was 5.49; for LNAELEEKMMMEAEKLKAQGEYSR [Q11M], 4.18. Turning to LNAELEEKMMNEAEKLKAQGEYSR [Q11N], the protein stability index came out at 5.04. For LNAELEEKMMGEAEKLKAQGEYSR [Q11G] the value was 5.18; for LNAELEEKMMEEAEKLKAQGEYSR [Q11E], 5.55. For LNAELEEKMMVEAEKLKAQGEYSR [Q11V] the value was 5.09; for LNAELEEKMMREAEKLKAQGEYSR [Q11R], 4.76; for LNAELEEKMMKEAEKLKAQGEYSR [Q11K], 4.94. As to LNAELEEKMMWEAEKLKAQGEYSR [Q11W], the protein stability index amounted to 4.22.

Consider LNAELEEKMMTEAEKLKAQGEYSR [Q11T], for which the protein stability index turned out to be 5.67. As for LNAELEEKMMDEAEKLKAQGEYSR [Q11D], the protein stability index was determined as 5.7. LNAELEEKMMCEAEKLKAQGEYSR [Q11C]: the protein stability index was found to be 5.38. As for LNAELEEKMMHEAEKLKAQGEYSR [Q11H], the figure is 4.84. For LNAELEEKMMIEAEKLKAQGEYSR [Q11I] the value was 4.96; for LNAELEEKMMPEAEKLKAQGEYSR [Q11P], 4.75. As for LNAELEEKMMLEAEKLKAQGEYSR [Q11L], the figure is 3.99.

These data come from the supplement of paper PMC10567573.
